In patent publication EP4736885A1 (CSPC Megalith Biopharmaceutical Co., Ltd., dated 2025):

T1: B7H3 on B7H3-positive human melanoma A375 cells (human, UniProt Q5ZPR3 29-534)
T1 construct: whole, on cells; Endogenous B7H3 on A375 cells; also called B7H3-positive A375 cells
T1 sequence (looked up): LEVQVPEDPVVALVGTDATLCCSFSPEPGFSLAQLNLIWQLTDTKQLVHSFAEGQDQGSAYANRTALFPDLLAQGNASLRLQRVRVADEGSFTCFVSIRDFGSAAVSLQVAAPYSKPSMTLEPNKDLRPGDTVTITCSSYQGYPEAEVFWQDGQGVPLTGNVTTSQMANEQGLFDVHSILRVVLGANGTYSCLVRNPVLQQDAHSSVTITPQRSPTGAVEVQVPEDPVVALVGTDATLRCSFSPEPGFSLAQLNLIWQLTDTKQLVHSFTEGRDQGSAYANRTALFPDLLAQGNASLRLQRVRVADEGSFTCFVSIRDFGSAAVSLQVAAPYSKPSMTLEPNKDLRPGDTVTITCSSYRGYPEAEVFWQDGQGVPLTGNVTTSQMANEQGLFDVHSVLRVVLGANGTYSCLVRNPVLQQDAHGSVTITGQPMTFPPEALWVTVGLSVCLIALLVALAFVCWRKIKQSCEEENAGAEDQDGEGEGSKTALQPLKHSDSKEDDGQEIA

T2: His-tagged human B7H3 protein (purchased from Beijing ACROBiosystems Co., Ltd.) (human, UniProt Q5ZPR3-2 29-245, limits assumed)
T2 construct: not shown: His tag
T2 sequence (looked up): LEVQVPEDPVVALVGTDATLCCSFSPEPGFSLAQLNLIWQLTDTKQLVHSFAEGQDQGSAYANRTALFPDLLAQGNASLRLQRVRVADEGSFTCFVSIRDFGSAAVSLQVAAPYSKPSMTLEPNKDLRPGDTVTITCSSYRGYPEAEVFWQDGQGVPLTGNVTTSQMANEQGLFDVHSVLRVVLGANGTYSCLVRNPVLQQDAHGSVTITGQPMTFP


Assays:
[1] = target: T1, B7H3 on B7H3-positive human melanoma …; assay: flow cytometry on B7H3-positive A375 cells, MFI
[2] = target: T2, His-tagged human B7H3 protein …; assay: ELISA, His-tagged human B7H3 coated on plate, anti-human IgG-HRP

Binder	EC50 [1] [ng/mL]	EC50 [2] [ng/mL]
M30 antibody (CN103687945B) (antibody, human IgG1, kappa, V domains shown, also called M30-H1/M30-L4) VH: QVQLVQSGAEVKKPGSSVKVSCKASGYTFTNYVMHWVRQAPGQGLEWMGYINPYNDDVKYNEKFKGRVTITADESTSTAYMELSSLRSEDTAVYYCARWGYYGSPLYYFDYWGQGTLVTVSS VL: EIVLTQSPATLSLSPGERATLSCRASSRLIYMHWYQQKPGQAPRPLIYATSNLASGIPARFSGSGSGTDFTLTISSLEPEDFAVYYCQQWNSNPPTFGQGTKVEIKR	125	
antibody-drug conjugate 43B-045-6 (antibody, human IgG1, kappa, L234A L235A, linker-drug compound 045 (exatecan) on thiols of reduced interchain cysteines; DAR of the whole conjugate 5.7) heavy: QVQLVQSGAEVKKPGASVKVSCKASGYTFTDYFMNWVRQAPGQGLEWMGDVNPKTGSPSYNQKFKGRVTMTRDTSTSTVYMELSSLRSEDTAVYYCARRYGFLYSMDYWGQGTSVTVSSASTKGPSVFPLAPSSKSTSGGTAALGCLVKDYFPEPVTVSWNSGALTSGVHTFPAVLQSSGLYSLSSVVTVPSSSLGTQTYICNVNHKPSNTKVDKRVEPKSCDKTHTSPPCPAPEAAGGPSVFLFPPKPKDTLMISRTPEVTCVVVDVSHEDPEVKFNWYVDGVEVHNAKTKPREEQYNSTYRVVSVLTVLHQDWLNGKEYKCKVSNKALAASIEKTISKAKGQPREPQVYTLPPSREEMTKNQVSLTCLVKGFYPSDIAVEWESNGQPENNYKTTPPVLDSDGSFFLYSKLTVDKSRWQQGNVFSCSVMHEALHNHYTQKSLSLSPGK light: not shown	37.8	
antibody-drug conjugate 43A-DXd (antibody, human IgG1, kappa, L234A L235A, deruxtecan linker-drug on thiols of reduced interchain cysteines; DAR of the whole conjugate 7.4) heavy: QVQLVQSGAEVKKPGASVKVSCKASGYTFTDYFMNWVRQAPGQGLEWMGDVNPKTGSPSYNQKFKGRVTMTRDTSTSTVYMELSSLRSEDTAVYYCARRYGFLYSMDYWGQGTSVTVSSASTKGPSVFPLAPSSKSTSGGTAALGCLVKDYFPEPVTVSWNSGALTSGVHTFPAVLQSSGLYSLSSVVTVPSSSLGTQTYICNVNHKPSNTKVDKRVEPKSCDKTHTCPPCPAPEAAGGPSVFLFPPKPKDTLMISRTPEVTCVVVDVSHEDPEVKFNWYVDGVEVHNAKTKPREEQYNSTYRVVSVLTVLHQDWLNGKEYKCKVSNKALAASIEKTISKAKGQPREPQVYTLPPSREEMTKNQVSLTCLVKGFYPSDIAVEWESNGQPENNYKTTPPVLDSDGSFFLYSKLTVDKSRWQQGNVFSCSVMHEALHNHYTQKSLSLSPGK light: not shown		1.19
anti-B7H3 antibody 43A (antibody, human IgG1, kappa, L234A L235A, 2 identical heavy chains and 2 identical light chains) heavy: QVQLVQSGAEVKKPGASVKVSCKASGYTFTDYFMNWVRQAPGQGLEWMGDVNPKTGSPSYNQKFKGRVTMTRDTSTSTVYMELSSLRSEDTAVYYCARRYGFLYSMDYWGQGTSVTVSSASTKGPSVFPLAPSSKSTSGGTAALGCLVKDYFPEPVTVSWNSGALTSGVHTFPAVLQSSGLYSLSSVVTVPSSSLGTQTYICNVNHKPSNTKVDKRVEPKSCDKTHTCPPCPAPEAAGGPSVFLFPPKPKDTLMISRTPEVTCVVVDVSHEDPEVKFNWYVDGVEVHNAKTKPREEQYNSTYRVVSVLTVLHQDWLNGKEYKCKVSNKALAASIEKTISKAKGQPREPQVYTLPPSREEMTKNQVSLTCLVKGFYPSDIAVEWESNGQPENNYKTTPPVLDSDGSFFLYSKLTVDKSRWQQGNVFSCSVMHEALHNHYTQKSLSLSPGK light: not shown	54.5	1.02
antibody-drug conjugate 43A-042 (antibody, human IgG1, kappa, L234A L235A, linker-drug compound A_10 (exatecan) on thiols of reduced interchain cysteines; DAR of the whole conjugate 7.6) heavy: QVQLVQSGAEVKKPGASVKVSCKASGYTFTDYFMNWVRQAPGQGLEWMGDVNPKTGSPSYNQKFKGRVTMTRDTSTSTVYMELSSLRSEDTAVYYCARRYGFLYSMDYWGQGTSVTVSSASTKGPSVFPLAPSSKSTSGGTAALGCLVKDYFPEPVTVSWNSGALTSGVHTFPAVLQSSGLYSLSSVVTVPSSSLGTQTYICNVNHKPSNTKVDKRVEPKSCDKTHTCPPCPAPEAAGGPSVFLFPPKPKDTLMISRTPEVTCVVVDVSHEDPEVKFNWYVDGVEVHNAKTKPREEQYNSTYRVVSVLTVLHQDWLNGKEYKCKVSNKALAASIEKTISKAKGQPREPQVYTLPPSREEMTKNQVSLTCLVKGFYPSDIAVEWESNGQPENNYKTTPPVLDSDGSFFLYSKLTVDKSRWQQGNVFSCSVMHEALHNHYTQKSLSLSPGK light: not shown		1.17
antibody-drug conjugate 43A-043 (antibody, human IgG1, kappa, L234A L235A, linker-drug compound B_3 (exatecan) on thiols of reduced interchain cysteines; DAR of the whole conjugate 7.8) heavy: QVQLVQSGAEVKKPGASVKVSCKASGYTFTDYFMNWVRQAPGQGLEWMGDVNPKTGSPSYNQKFKGRVTMTRDTSTSTVYMELSSLRSEDTAVYYCARRYGFLYSMDYWGQGTSVTVSSASTKGPSVFPLAPSSKSTSGGTAALGCLVKDYFPEPVTVSWNSGALTSGVHTFPAVLQSSGLYSLSSVVTVPSSSLGTQTYICNVNHKPSNTKVDKRVEPKSCDKTHTCPPCPAPEAAGGPSVFLFPPKPKDTLMISRTPEVTCVVVDVSHEDPEVKFNWYVDGVEVHNAKTKPREEQYNSTYRVVSVLTVLHQDWLNGKEYKCKVSNKALAASIEKTISKAKGQPREPQVYTLPPSREEMTKNQVSLTCLVKGFYPSDIAVEWESNGQPENNYKTTPPVLDSDGSFFLYSKLTVDKSRWQQGNVFSCSVMHEALHNHYTQKSLSLSPGK light: not shown		1.09
antibody-drug conjugate 43B-042 (antibody, human IgG1, kappa, L234A L235A, linker-drug compound A_10 (exatecan) on thiols of reduced interchain cysteines; DAR of the whole conjugate 5.9) heavy: QVQLVQSGAEVKKPGASVKVSCKASGYTFTDYFMNWVRQAPGQGLEWMGDVNPKTGSPSYNQKFKGRVTMTRDTSTSTVYMELSSLRSEDTAVYYCARRYGFLYSMDYWGQGTSVTVSSASTKGPSVFPLAPSSKSTSGGTAALGCLVKDYFPEPVTVSWNSGALTSGVHTFPAVLQSSGLYSLSSVVTVPSSSLGTQTYICNVNHKPSNTKVDKRVEPKSCDKTHTSPPCPAPEAAGGPSVFLFPPKPKDTLMISRTPEVTCVVVDVSHEDPEVKFNWYVDGVEVHNAKTKPREEQYNSTYRVVSVLTVLHQDWLNGKEYKCKVSNKALAASIEKTISKAKGQPREPQVYTLPPSREEMTKNQVSLTCLVKGFYPSDIAVEWESNGQPENNYKTTPPVLDSDGSFFLYSKLTVDKSRWQQGNVFSCSVMHEALHNHYTQKSLSLSPGK light: not shown		1.16
antibody-drug conjugate 43B-043 (antibody, human IgG1, kappa, L234A L235A, linker-drug compound B_3 (exatecan) on thiols of reduced interchain cysteines; DAR of the whole conjugate 5.9) heavy: QVQLVQSGAEVKKPGASVKVSCKASGYTFTDYFMNWVRQAPGQGLEWMGDVNPKTGSPSYNQKFKGRVTMTRDTSTSTVYMELSSLRSEDTAVYYCARRYGFLYSMDYWGQGTSVTVSSASTKGPSVFPLAPSSKSTSGGTAALGCLVKDYFPEPVTVSWNSGALTSGVHTFPAVLQSSGLYSLSSVVTVPSSSLGTQTYICNVNHKPSNTKVDKRVEPKSCDKTHTSPPCPAPEAAGGPSVFLFPPKPKDTLMISRTPEVTCVVVDVSHEDPEVKFNWYVDGVEVHNAKTKPREEQYNSTYRVVSVLTVLHQDWLNGKEYKCKVSNKALAASIEKTISKAKGQPREPQVYTLPPSREEMTKNQVSLTCLVKGFYPSDIAVEWESNGQPENNYKTTPPVLDSDGSFFLYSKLTVDKSRWQQGNVFSCSVMHEALHNHYTQKSLSLSPGK light: not shown		1.05
anti-B7H3 antibody 43B (antibody, human IgG1, kappa, L234A L235A, 2 identical heavy chains and 2 identical light chains) heavy: QVQLVQSGAEVKKPGASVKVSCKASGYTFTDYFMNWVRQAPGQGLEWMGDVNPKTGSPSYNQKFKGRVTMTRDTSTSTVYMELSSLRSEDTAVYYCARRYGFLYSMDYWGQGTSVTVSSASTKGPSVFPLAPSSKSTSGGTAALGCLVKDYFPEPVTVSWNSGALTSGVHTFPAVLQSSGLYSLSSVVTVPSSSLGTQTYICNVNHKPSNTKVDKRVEPKSCDKTHTSPPCPAPEAAGGPSVFLFPPKPKDTLMISRTPEVTCVVVDVSHEDPEVKFNWYVDGVEVHNAKTKPREEQYNSTYRVVSVLTVLHQDWLNGKEYKCKVSNKALAASIEKTISKAKGQPREPQVYTLPPSREEMTKNQVSLTCLVKGFYPSDIAVEWESNGQPENNYKTTPPVLDSDGSFFLYSKLTVDKSRWQQGNVFSCSVMHEALHNHYTQKSLSLSPGK light: not shown	61.2	1.05
